Measurements reported in patent US6548066B1, “Immunogenic compositions to the CCK-B/gastrin receptor and methods for the treatment of tumors” (Aphton Corporation, priority 1997, dated 2003).

How the values were obtained:
[1] = tested on: MC26 mouse colon tumor; conditions: treated animals; 25 days in the control animals; cited from earlier work
[2] = tested on: affinity purified anti-GRP1 Ab binding to GRP1-Ser-BSA; experiment: Inhibition ELISA, specificity of affinity purified anti-GRP1 antibodies; parameters: species or system rabbit; conditions: anti-GRP1 Ab 10 ng/ml; inhibitor 1:10 dilution series
Method: The following experiments were performed to establish the specificity of antibodies raised in rabbits against the GRP1-DT peptide containing Ser spacer described Example 1 using Method B. A series of tests were conducted to assess the specificity of rabbit antibodies induced by immunization with the GRP1-DT and affinity purified by immunoadsorption over a GRP1-Ser Sepharose column.
An inhibition ELISA was used to assess the specificity of the affinity purified antibodies for GRP1-Ser peptide. The assays were run as follows: GRP1-Ser-BSA conjugate was coated onto 96 well plates (Immulon U bottom) by overnight incubation of 50 μl of a 2 μg/ml solution of conjugate in glycine buffer (0.1M, pH=9.5) at 4° C. Affinity purified anti-GRP1 Ab (at a final concentration of 10 ng/ml) was combined with various inhibitors (in 1:10 dilution series) and incubated for 1 hour at room temperature. The inhibitors included GRP1-Ser, GRP1 EPT, Ser, human gastrin 17(1-9)-Ser spacer (hG17(9)-Ser), GRP1 EPT+Ser, and buffer (no inhibitor). Incubation buffer consisted of PBS+0.5% BSA+0.05% Tween 20+0.02% NaN3. Subsequent steps used the same buffer without BSA. The 96 well plates were washed free of nonbound GRP1-Ser-BSA, and the Ab+inhibitor mixtures were added (50 μl/well). After 1 hour, the plates were washed and a goat anti-rabbit Ig (H+L) alkaline phosphatase conjugate (Zymed) was added (1:2000 dilution). […] Following a 60 minute incubation, absorbance was measured on a MRX reader (Dynatech Laboratories). Samples were run in duplicate, and means were calculated for each concentration. Background binding (established with affinity purified rabbit anti-GnRH antibodies) was subtracted from all values, and the % Inhibition relative to no inhibitor added (anti-GRP1 Ab+buffer) was calculated for each inhibitor tested: % Inhibition=(100)(1−((Auninhibited−Ainhibited)/Auninhibited), where A=Absorbance. The results are shown in FIG. 4.

[3] = target: T1, gastrin-receptor expressed by AR42J cells (Rattus norvegicus, UniProt P30553); experiment: Immunofluorescence binding of antibodies to AR42J cells; conditions: peptide inhibitor 1.0 mg/ml; antibody 100 μg/ml
T1 construct: host or cells: AR42J rat pancreatic adenocarcinoma cells
T1 sequence (P30553 1-452): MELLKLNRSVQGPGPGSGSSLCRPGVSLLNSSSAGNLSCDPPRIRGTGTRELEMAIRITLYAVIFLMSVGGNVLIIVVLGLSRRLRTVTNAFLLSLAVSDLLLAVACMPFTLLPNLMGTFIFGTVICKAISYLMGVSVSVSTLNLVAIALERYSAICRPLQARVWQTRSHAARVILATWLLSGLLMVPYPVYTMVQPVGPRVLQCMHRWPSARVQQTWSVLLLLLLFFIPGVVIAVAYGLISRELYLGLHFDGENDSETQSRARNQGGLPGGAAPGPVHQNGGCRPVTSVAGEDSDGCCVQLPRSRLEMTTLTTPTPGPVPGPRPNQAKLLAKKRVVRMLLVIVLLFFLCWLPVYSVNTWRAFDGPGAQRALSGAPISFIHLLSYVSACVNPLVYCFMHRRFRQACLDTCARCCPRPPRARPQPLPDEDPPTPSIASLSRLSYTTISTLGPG
Method: Binding of the GRP1-Ser specific antibodies to AR42J cells was assessed by immunofluorescence. AR42J cells were grown as in the previous Examples and harvested with cell scrapers from 175 cm^2 T-flasks and washed twice with buffer (PBS with 0.02% NaN3) by centrinugation (400×g for 7 min). The cells were kept at 0-4° C. for all manipulations. A single cell suspension was prepared in buffer, and the cell concentration was adjusted to 10^6 cells/ml. The cell suspension was added to 1.5 ml microfuge tubes (1 ml/tube). The cells were pelleted by centrifugation and supernatants were aspirated. The cells were resuspended in buffer (0.1 ml/tube) containing peptide inhibitors (1.0 mg/ml). The inhibitors included GRP1-Ser, GnRH, hG17(9)-Ser and buffer (no inhibitor). Antibodies, including the rabbit anti-GRP1-Ser (100 μg/ml), affinity purified rabbit anti-DT (negative control, 100 μg/ml), mouse anti-AR42J antiserum (positive control, 1:100 dilution, heat inactivated) or normal mouse serum were added to the appropriate tubes and the contents were mixed. The cells were incubated for 1 hour, with occasional mixing. […] Fluorescence was scored on a scale of 0 to 4, with 0 representing background fluorescence (obtained with the normal mouse serum) and 4 representing maximal fluorescence (obtained with the mouse anti-AR42J positive control antiserum).

[4] = target: T2, CCK-B/gastrin-receptor on AR42J cells (Rattus norvegicus, UniProt P30553); experiment: Radioligand (125I-hG17) binding inhibition on AR42J cells
T2 construct: host or cells: AR42J rat pancreatic adenocarcinoma cells
T2 sequence (P30553 1-452): T1 sequence (P30553 1-452)
Method: AR42J tumor cells (European Collection of Animal Cell cultures, Porton Down, UK) are derived from a rat pancreatic adenocarcinoma and are known to have well characterized CCK-B/gastrin-receptors. Thus AR42J were tested to confirm the expression of CCK-B/gastrin-receptor and specificity of the receptor for hH17 by radioligand inhibition. AR42J cells were cultured at 37° C. with 7% CO2 in complete RPMI 1640 (Sigma) supplemented with 10% FCS (Gemini Bioproducts), 2 mM glutamine (JRH Biosciences), 1 mM sodium pyruvate (JRH B.) and 50 μg/ml gentamicin (Gemini Bioproducts). The cells were harvested from 175 cm^2 T-flasks (Falcon Plastics) with PBS containing 0.25% EDTA, then washed twice with PBS (no EDTA) by centrifugation (400×g for 10 min). The cells were kept at 0-4° C. for all manipulations. A single cell suspension was prepared in buffer, and the cell concentration was adjusted to 10^6 cells/ml. Aliquots of 1 ml of cell suspension were added to 12×75 mm culture tubes, then the cells were centrifuged and the supernatants discarded. The cells were resuspended in PBS (0.1 ml/tube) containing human G17 (hG17), gonadotropin releasing hormone (GnRH), or no peptide. The peptide concentrations were 1.0 ng/ml, 100 ng/ml and 10 μg/ml. An aliquot of 0.1 ml of ^125I-hG17 (NEN), containing approximately 26,300 CPM (specific activity, 2200 Ci/mmol), was added to each tube. The tubes were vortexed, then incubated for 15 minutes. The cells were washed twice with PBS, then counted in a γ counter (Wallac). Samples were run in duplicate. Background counts were subtracted, then the % inhibition of ^125I-hG17 binding by each inhibitor was calculated using the equation: % Inhibition=(100)(1−((CPMuninhibited−CPMinhibited)/CPMuninhibited).

CCCN(CCC)C(=O)C(CCC(=O)O)NC(=O)c1ccccc1 (stereo not drawn) [proglumide]
survival of xenograft mice bearing MC26 [1]: 39 days

hG17(9)-Ser: amino-terminal nine residues of hG17 followed by the Ser spacer (QGPWLEEEESSPPPPPC)
inhibition of antibody binding to GRP1-Ser-BSA [2]: No inhibition | inhibition of anti-GRP1-Ser antibody binding to AR42J cells [3]: failed to inhibit

SSPPPPC [Ser spacer]
inhibition of antibody binding to GRP1-Ser-BSA [2]: No inhibition

hG17: human G17, heptadecagastrin
inhibition of 125I-hG17 binding to AR42J cells ([4]; 1 μg per tube, highest concentration tested): 32%

KLNRSVQGTGPGPGASL [GRP1 EPT]
inhibition of antibody binding to GRP1-Ser-BSA [2]: Approximately 60%

GnRH: gonadotropin releasing hormone
inhibition of 125I-hG17 binding to AR42J cells ([4]; 100 pg, considered to be nonspecific): 6% | inhibition of 125I-hG17 binding to AR42J cells ([4]; two highest concentrations tested): no inhibition | inhibition of anti-GRP1-Ser antibody binding to AR42J cells [3]: failed to inhibit
